Measurements taken from patent publication US20240041922A1, “METHODS AND COMPOSITIONS” (Monash University, priority 2020, published 2024).
Entries after “also recorded” stand apart in the source; their conditions may differ.

Legend:
CCR5 = assay: NAMPTcif competition with NAMPT binding to CCR5
Text: (§1) As described above NAMPT, is a large homodimeric intracellular enzyme which acts as cytokine when released in the extracellular milieu. […] Moreover, the domain extends out from the core protein structure potentially facilitating receptor binding.

satellite cells = assay: Satellite cell stimulation with NAMPTcif (proliferation); assay type: cell-based; conditions: compared to no stimulation control
Text: as §1

[1] = test system: wound-resident muscle stem cells; assay: Larval zebrafish needle stab muscle injury, wound site proliferation (EdU); assay type: in vivo; conditions: needle stab injury; for wound site muscle stem cell proliferation: agent alone
Procedure: 4dpf larvae were anaesthetized in 0.01% tricaine (MS-222) (Sigma-Aldrich) in Ringer's solution. Mechanical injures were targeted either to the dorsal or ventral myotome above the cloaca when the larvae is oriented dorsal to the top, anterior to the left. Needle-stick injury was carried out as previously described (Gurevich, D. B. el al. Asymmetric division of clonal muscle stem cells co-ordinate muscle regeneration in vivo. Science 353 6295 aad9969 (2016)). Briefly, the myotome was subjected to a single 30-gauge needle puncture that generates an extensive injury with many damaged muscle fibres. For laser-induced injury, anaesthetised larvae were mounted in a thin layer of 1% low-melt agarose in Ringer's solution. Injuries were carried out using a UV-nitrogen laser pulsed through a coumarin 440 nm dye cell coupled to a Zeiss Axioplan microscope (MicroPoint Laser System, Andor Technology). On average a laser injury required pulses for 5-10 sec from laser beams focused through a 40× water immersion objective. For time-lapse analysis of the immediate response to injury, muscle fibre ablations were achieved using a SIM scanner (Olympus) at 790 nm and 200 msec dwell time at 100% laser power on an Olympus FVMPE-RS upright multi-photon microscope equipped with a 25×/1.05 water immersion objective. Injury-responding macrophages were tracked using the manual tracking plugin in Fiji.
Cell ablation was carried out as previously described (Pisharath, H. & Parsons, M. J. in Zebrafish 133-143 (Springer, 2009)) with minor modifications. Larvae at the appropriate stage were incubated in 5-10 mM metronidazole (Mtz) (Sigma-Aldrich) in Ringer's solution and daily refreshed until experimental end point. Drug treatments were carried out by incubating 4 dpf needle stick injured larvae in 5 and 10 μM cenicriviroc (CVC) (Med Chem Express) and 5 and 10 μM maraviroc (MVC) (Med Chem Express) in Ringer's solution immediately post injury and refreshed daily.
The effect of drug treatment on laser ablation muscle injury was assayed by treating larvae with 5 μM CVC for 2 h prior to injury and with larvae being maintained in the drug until experimental end point. […] Chemokine supplementation experiments were carried out in plasticware coated with 0.1% bovine serum albumin (BSA) overnight (rinsed in Ringer's solution prior to use) to minimise protein adsorption. Larvae were treated with 57 nM recombinant human visfatin (hrNAMPT(1)) (PeproTech), 57 nM recombinant murine CCL8/MCP-2 (mrCCL8) (PeproTech) and combinations with Mtz and CVC.
Larvae: Labelling and detection was carried out as previously described (Nguyen, P. D. et al. Muscle stem cells undergo extensive clonal drift during tissue growth via Meox1-mediated induction of G2 cell-cycle arrest. Cell Stem Cell 21, 107-119. e106 (2017))^55 with minor alteration. 6 dpf/2 dpi larvae were pulsed with 2.5 nM EdU (Thermo Fisher) for 1h and chased for a further 1.5 h prior to fixation. Cell culture: Cells were incubated for 1 h in media supplemented with 10 μM EdU. Following Edu pulse, C2C12 cells were fixed immediately, while primary mouse myoblast co-cultures were rinsed in PBS, replaced with media and incubated for a further 2 h following which the cells were fixed. Cells were processed using the Click-iT™ EdU Alexa Fluro™ 647 imaging Kit (Thermo Fisher) following the manufacturer's protocol.

C2C12 myoblasts = assay: C2C12 myoblast proliferation (EdU incorporation); assay type: cell-based, mouse; conditions: 6 h in growth media
Procedure: Larvae: Labelling and detection was carried out as previously described (Nguyen, P. D. et al. Muscle stem cells undergo extensive clonal drift during tissue growth via Meox1-mediated induction of G2 cell-cycle arrest. […] Cell culture: Cells were incubated for 1 h in media supplemented with 10 μM EdU. […] Cells were processed using the Click-iTTM EdU Alexa FluroTM 647 imaging Kit (Thermo Fisher) following the manufacturer's protocol. The mouse muscle cell line […]. Serial passaging and differentiation of myogenic cells isolated from dystrophic mouse muscle. Nature 270, 725 (1977) were cultured in growth media (Dulbecco's Modified Eagle Medium (4.5 g/l D-Glucose, No L Glutamine, No Sodium Pyruvate (Gibco))+20% Fetal Bovine Solution-One Shot (Gibco)+1% Glut Max 100x (Gibco)). Cells were maintained at 37° C., 5% CO2. Cells at 70% confluence, passage 8 were extracted from T75 flasks with 0.025% Tryspin EDTA (Gibco), neutralised in growth media, spun at 180×g for 5 min to pellet cells. The cells were then resuspended in 10 ml of fresh growth media. 500 μl of cells were plated on a 8-well on cover glass II (Sarstedt) chamber slide at a density of 1×10^3 cells/ml. Cells were left 4 h at 37° C. to re-attach. For drug treatments, the media were supplemented with appropriate doses and cultured for 6 h.

PAX7+ satellite cells = assay: Primary mouse myoblast mono- and co-cultures, PAX7+ satellite cell proliferation (EdU); assay type: cell-based; conditions: myoblast monoculture (MB) and MB+3T3 co-culture, 24 h
Procedure: Larvae: Labelling and detection was carried out as previously described (Nguyen, P. D. et al. Muscle stem cells undergo extensive clonal drift during tissue growth via Meox1-mediated induction of G2 cell-cycle arrest. […] Cell culture: Cells were incubated for 1 h in media supplemented with 10 μM EdU. […] Cells were processed using the Click-iTTM EdU Alexa FluroTM 647 imaging Kit (Thermo Fisher) following the manufacturer's protocol. For isolation of primary mouse myoblasts, limb skeletal muscle from E17.5 C57/BL6J mice were minced and digested in 0.125% Trypsin at 37° C. for 20 min. […] Myoblasts were again depleted for fibroblasts prior to co-culturing on gelatin-coated 48 well plates in DMEM+20% FBS+10% L929-conditioned medium. 100,000 myoblasts were plated with either 7,500 MafB/c-Maf deficient (Maf-DKO) macrophages (Aziz, A., Soucie, E., Sarrazin, […]. MafB/c-Maf deficiency enables self-renewal of differentiated functional macrophages. […] For drug treatments, the media were supplemented with appropriate doses and cultured for 24 h.

[2] = target: T1, human recombinant CCR5 (hrCCR5) (Homo sapiens, UniProt P51681); assay: hrNAMPT binding to hrCCR5 (ELISA); conditions: hrNAMPT(1) 0-800 nM on hrCCR5-coated ELISA plates, BSA binding deducted; read-out: dissociation constant (KD)
T1 construct: purchased Abcam
Procedure: hrNAMPT binding to hrCCR5: ELISA plates (Medium binding, Greiner Bio-One) were coated with 1% BSA or 20 nM of GST-fused recombinant human CCR5 (hrCCR5, Abcam) in PBS overnight at 4° C. Wells were blocked for 1 h at room temperature with 1% BSA in PBS containing 0.05% Tween-20 (PBS-T). Wells were washed 3 times with PBS-T and further incubated with hrNAMPT(1) (Peprotech) at increasing concentration (0 nM to 800 nM) for 1 h in PBS-T with 0.1% BSA.

T1 sequence (P51681 whole entry): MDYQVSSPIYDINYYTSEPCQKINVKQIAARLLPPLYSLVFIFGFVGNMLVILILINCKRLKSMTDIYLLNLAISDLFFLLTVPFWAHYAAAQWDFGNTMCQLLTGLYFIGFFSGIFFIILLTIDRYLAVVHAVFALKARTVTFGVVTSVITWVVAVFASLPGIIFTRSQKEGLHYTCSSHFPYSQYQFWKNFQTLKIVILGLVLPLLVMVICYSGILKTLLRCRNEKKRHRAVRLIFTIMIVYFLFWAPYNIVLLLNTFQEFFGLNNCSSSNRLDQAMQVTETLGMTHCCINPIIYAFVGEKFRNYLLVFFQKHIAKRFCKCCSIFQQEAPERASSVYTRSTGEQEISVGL

B1: NAMPTcif: recombinantly produced C-terminal fragment of NAMPT, termed cytokine finger (cif) (protein)
chain: MSYVVTNGLGVNVFKDPVADPNKRSKKGRLSLHRTPAGNFVTLEEGKGDLEEYGHDLLHTVFKNGKVTKSYSFDEVRKNAQLNIEQDVAPHHHHHHH
With B1 the “inhibition of NAMPT binding to CCR5” value (CCR5) was “inhibits the binding of NAMPT to CCR5”, the satellite cell proliferation (satellite cells) was “promotes proliferation in a dose-dependent manner” and the satellite cell proliferation (satellite cells; listed as cif) was “stimulates satellite cell proliferation in a dose-dependent manner”.

B2: mrCCL8: recombinant murine CCL8/MCP-2 (PeproTech), canonical CCR5 ligand (protein)
chain: GPDKAPVTCCFHVLKLKIPLRVLKSYERINNIQCPMEAVVFQTKQGMSLCVDPTQKWVSEYMEILDQKSQILQP
In the case of B2, the “increase in cell proliferation external to the site of injury vs control” value [1] is reported as 43.03±4.46%, the “proliferation external to the injury zone” value [1] is reported as “also increased proliferation external to the injury zone” and the “wound site muscle stem cell proliferation” value [1] is reported as “functioned to increase proliferation in the wound site”. For the same molecule, the “increase in muscle stem cell proliferation within the wound site vs control” value ([1]; supplementation) was 28.34±4.48%, the “myoblast proliferation, factor added alone” value (from here on “myoblast proliferation”) (C2C12 myoblasts) was “functioned to enhance C2C12 proliferation” and the “myoblast proliferation” value (C2C12 myoblasts; listed as CCL8/MCP-2) was “could be recapitulated”.

B3: mrCCL4: recombinant murine CCL4/MIP-1β (PeproTech), cognate CCR5 ligand (protein)
chain: APMGSDPPTSCCFSYTSRQLHRSFVMDYYETSSLCSKPAVVFLTKRGRQICANPSEPWVTEYMSDLELN
B3 was tested, and the “proliferation external to the injury zone” value [1] was “failed to demonstrate discrimination between injury region and sites external to the damage”, the “wound site muscle stem cell proliferation” value [1] was “functioned to enhance proliferation” and the “satellite cell proliferation on supplementation” value (PAX7+ satellite cells) was “enhanced proliferation; also recorded: mirrored the results of NAMPT addition”. The “myoblast proliferation” value (C2C12 myoblasts) was “functioned to enhance C2C12 proliferation” and the “myoblast proliferation” value (C2C12 myoblasts; listed as CCL4/MIP-1β) was “could be recapitulated”.

B4: hrNAMPT(1): recombinant human visfatin (PeproTech) (protein)
chain: PPNTSKVYSYFECREKKTENSKLRKVKYEETVFYGLQYILNKYLKGKVVTKEKIQEAKDVYKEHFQDDVFNEKGWNYILEKYDGHLPIEIKAVPEGFVIPRGNVLFTVENTDPECYWLTNWIETILVQSWYPITVATNSREQKKILAKYLLETSGNLDGLEYKLHDFGYRGVSSQETAGIGASAHLVNFKGTDTVAGLALIKKYYGTKDPVPGYSVPAAEHSTITAWGKDHEKDAFEHIVTQFSSVPVSVVSDSYDIYNACEKIWGEDLRHLIVSRSTQAPLIIRPDSGNPLDTVLKVLEILGKKFPVTENSKGYKLLPPYLRVIQGDGVDINTLQEIVEGMKQKMWSIENIAFGSGGGLLQKLTRDLLNCSFKCSYVVTNGLGINVFKDPVADPNKRSKKGRLSLHRTPAGNFVTLEEGKGDLEEYGQDLLHTVFKNGKVTKSYSFDEIRKNAQLNIELEAAHH
In the case of B4, the Kd [2] is reported as 172 ± 18 nM and the “myoblast proliferation” value (C2C12 myoblasts) is reported as “dose dependent increase in myoblast proliferation; also recorded: comparable and significant dose dependent increases in myoblast proliferation”.

B5: hrNAMPT(2): recombinant human visfatin (Enzo Life Sciences) (protein)
chain: MNPAAEAEFNILLATDSYKVTHYKQYPPNTSKVYSYFECREKKTENSKLRKVKYEETVFYGLQYILNKYLKGKVVTKEKIQEAKDVYKEHFQDDVFNEKGWNYILEKYDGHLPIEIKAVPEGFVIPRGNVLFTVENTDPECYWLTNWIETILVQSWYPITVATNSREQKKILAKYLLETSGNLDGLEYKLHDFGYRGVSSQETAGIGASAHLVNFKGTDTVAGLALIKKYYGTKDPVPGYSVPAAEHSTITAWGKDHEKDAFEHIVTQFSSVPVSVVSDSYDIYNACEKIWGEDLRHLIVSRSTQAPLIIRPDSGNPLDTVLKVLEILGKKFPVTENSKGYKLLPPYLRVIQGDGVDINTLQEIVEGMKQKMWSIENIAFGSGGGLLQKLTRDLLNCSFKCSYVVTNGLGINVFKDPVADPNKRSKKGRLSLHRTPAGNFVTLEEGKGDLEEYGQDLLHTVFKNGKVTKSYSFDEIRKNAQLNIELEAAHH
With B5 the “myoblast proliferation” value (C2C12 myoblasts) was “dose dependent increase in myoblast proliferation; also recorded: comparable and significant dose dependent increases in myoblast proliferation”.
